# According to US20210155689A1 (SHANGHAI PHARMAEXPLORER, published 2021):
# T1: human LAG-3 protein with hFc tag (hLAG-3-hFc protein) (human, UniProt P18627 23-450)
# T1 construct: also called immunogen 1; LAG-3 extracellular domain protein; not shown: human IgG Fc fragment (hFc) of the pCpC vector
# T1 sequence: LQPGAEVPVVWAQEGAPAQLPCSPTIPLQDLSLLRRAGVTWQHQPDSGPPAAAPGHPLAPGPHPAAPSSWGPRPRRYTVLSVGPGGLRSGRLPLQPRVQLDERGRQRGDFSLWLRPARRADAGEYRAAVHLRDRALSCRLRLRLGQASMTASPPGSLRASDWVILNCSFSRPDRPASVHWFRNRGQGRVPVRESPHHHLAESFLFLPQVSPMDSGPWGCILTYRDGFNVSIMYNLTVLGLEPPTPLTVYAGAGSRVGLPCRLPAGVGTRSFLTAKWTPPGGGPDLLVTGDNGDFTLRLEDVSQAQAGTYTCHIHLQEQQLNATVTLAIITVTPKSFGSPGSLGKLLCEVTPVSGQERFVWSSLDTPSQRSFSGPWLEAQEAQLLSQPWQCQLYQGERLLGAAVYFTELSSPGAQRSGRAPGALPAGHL
# T2: human LAG-3 ECD (antigen protein of the affinity test) (human, UniProt P18627 23-450)
# T2 sequence: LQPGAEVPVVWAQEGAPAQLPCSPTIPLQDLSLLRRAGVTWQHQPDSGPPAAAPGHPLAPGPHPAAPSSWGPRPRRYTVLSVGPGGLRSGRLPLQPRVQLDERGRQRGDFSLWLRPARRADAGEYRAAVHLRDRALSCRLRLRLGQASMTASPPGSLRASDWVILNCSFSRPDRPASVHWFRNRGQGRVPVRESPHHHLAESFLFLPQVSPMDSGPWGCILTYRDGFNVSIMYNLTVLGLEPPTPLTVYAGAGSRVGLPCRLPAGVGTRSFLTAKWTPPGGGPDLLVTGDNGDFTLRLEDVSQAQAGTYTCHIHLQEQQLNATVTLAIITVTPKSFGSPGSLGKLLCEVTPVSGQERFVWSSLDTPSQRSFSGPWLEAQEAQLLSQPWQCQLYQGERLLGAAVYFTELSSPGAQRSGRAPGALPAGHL
# Tests used:
# [1] = target: T1, human LAG-3 protein with hFc tag …; assay: FACS, blocks LAG-3-hFc binding to MHC II on Raji; 2.469 nM
# Procedure: The FACS reaction plate incubating the Raji cells was centrifuged to discard the supernatant. The above mixture was added as 100 μl per well to Raji cells and incubated on ice for 1-2 hours. The plate was washed twice with blocking solution (PBS, 2% fetal bovine serum) by centrifugation, added with 100 microliters of fluorescent (Alexa 488)-labeled secondary antibodies per well, and incubated on ice for 1.0 hours. The plate was washed 2-3 times by centrifugation with blocking solution (PBS, 2% fetal bovine serum), added with 100 microliters of PBS per well to suspend cells, and detected using FACS (FACS Calibur, BD) and the results were analyzed. Wherein, the IgG control was murine IgG, and the data in the table is the inhibition rate (%).
# [2] = target: T2, human LAG-3 ECD (antigen protein of the …); assay: SPR, CM5 chip, antibody captured by anti-human Fc IgG, antigen in flow, 1:1 fit
# Procedure: First, anti-human Fc IgG was immobilized on the surface of the CM5 chip to 6000-10000 RU by amino coupling method, with FC1 as the reference channel. The coupling process was as follows: a freshly prepared 1:1 mixture of 50 mM NHS and 200 mM EDC was activated for 7 minutes, then injected with 10-50 ug/ml anti-human Fc IgG diluted in 10 mM sodium acetate ph5.0 buffer. The remaining activated sites were blocked with 1M ethanolamine. Then, HBS-EP+ buffer was used to dilute the antibody to be tested to 5 ug/ml (adjustable according to the capture level) and the antibodies were captured on the chip at a flow rate of 10 ul/min to obtain a response value of about 100˜300 RU. Then the antigen protein was diluted to 100 nM (the highest concentration was tentatively 100 nM), and flew through the chip surface at a flow rate of 30 ul/min. If enough signal value was obtained, the antigen-protein was diluted by several concentration gradients, and flew through the chip surface respectively. At the end of each cycle, the chip surface was regenerated with 10 mM Glycine at pH 1.5. The kinetic rate constant needed to be subtracted from the blank control, and the data was fitted with the global fit analysis method 1:1 combination model. The dissociation equilibrium rate constant (KD) was calculated according to the following formula: KD=kd/ka.
# [3] = target: T1, human LAG-3 protein with hFc tag …; assay: ELISA, hLAG-3-hFc coated; 0.0007 nM
# Procedure: (§1) The plate was sealed with plastic film and incubated overnight at 4° C. The plate was washed 2 times with the plate washing solution (PBS+0.01% Tween20) on the next day, and added with the blocking solution (PBS+0.01% Tween20+1% BSA) and blocked at room temperature for 1-2 hours. The blocking solution was poured out, and the plate was added with 50-100 μl of the antibody sample to be tested to each well, incubated at 37° C. for 1-2 hours, and washed 2-3 times with a plate washing solution (PBS+0.01% Tween20). HRP (horseradish peroxidase) labeled secondary antibody was added, and the plate was incubated at 37° C. for 1-2 hours, and washed 2-3 times with a plate washing solution (PBS+0.01% Tween20). 100 μl of TMB substrate was added to each well. After incubated at room temperature for 15-30 minutes, the plate was added with 100 μl of stop solution (1.0N HCl) to each well.
# [4] = target: T1, human LAG-3 protein with hFc tag …; assay: ELISA, hLAG-3-hFc coated; 6.6667 nM
# Procedure: as §1
Binder,Inhibition rate (%) [1],OD450 [3],OD450 [4],other results
"405B8H3 (mouse antibody purified from hybridoma) (antibody, V domains shown, also called mAb103-405B8H3; 405B81-13) VH: QVQLQQSGAELVRPGASVTLSCKASGYTFTDYEMHWVKQTPVHGLEWIGATDPETGNSAYNQKFKGKAIMTADKSSSTAYMELRSLTSEDSAVYYCISTGWNDWGQGTSLTVSS VL: DIKMTQSPSSMYASLGERVTITCKASQDINSYLSWFQQKPGKSPKTLIYRADRLLDGVPSRFSGSGSGQDYSLTISSLEYGDMGIYYCLQYDEFPYTFGGGTKLEIK",41.9%,–,–,–
"409B11E12 (mouse antibody purified from hybridoma) (antibody, V domains shown, also called mAb104-409B11E12) VH: QVQLQQSGAELVRPGASVTLSCKASGYTFTDYEMHWVKQTTVHGLEWIGATDPETSYSAYNQKFKGKAILTADKSSSTAYMELRSLTSEDSAVYYCIATGWNDWGQGTSLTVSS VL: DLKMTQSPSSMYASLGERVTITCKASQDINSYLSWFQQKPGKSPKTLIYRANRLLDGVPSRFSGSGSGQDYSLTISSLEYEDMGIYYCLQYDEFPYTFGGGTKLEIK",39.6%,–,–,–
"409D4E10 (mouse antibody purified from hybridoma) (antibody, V domains shown, also called mAb112-409D4E10) VH: QVQLQQSGAELVRPGASVTLSCKASGNTFTDYEMHWVKQTPVHGLEWIGATDPETDNTAYNQKFKGKAILTTDKSSSTAYMELRSLTSEDSAVYYCITSGWNDWGQGTSLTVSS VL: DIKMTQSPSSMYASLGERVTITCKASQDINSYLSWFQQKPGKSPKTLIYRANRLLDGVPSRFSGSGSGQDYSLTISSLEYEDMGIYYCLQYNEFPYTFGGGTKLEIK",44.7%,–,–,–
"556F6B8 mouse-human chimeric antibody (antibody, V domains shown, also called mAb123-556F6B8; 556F8B8) VH: RVQLKQSGPGLVQPSQSLSITCTVSGFSLIKYGVHWVRQSPGEGLEWLGVIWRGGITDYNAAFMSRLSITKDNSKSQVFFKMNSLQADDTAIYYCAKWDGPLAMDYWGQGTSVTVSS VL: DIVMTQSHKFLSTSVGDRVSITCKASQDVGTTVAWYQQKPGQSPKLLIYWASTRHTGVPDRFTGSGSGTDFTLTISNVQSEDLADYFCQQYSSYPYTFGGGTKLEIK",–,–,–,Kd [2]: 3.77 nM; koff [2]: 0.000459 s⁻¹; kon [2]: 122000 M⁻¹ s⁻¹
"105F1E10 mouse-human chimeric antibody (antibody, V domains shown, also called mAb009-105F1E10) VH: EVQLQQSGPELVKPGASVKMSCRASGYTFTDFKMHWMKQSHGKSLEWIGYIAPNNGGTAYNQKFRGKATLTVNESSNTAYMELRSLTSEDSAVYYCVDWDDVDYWGQGTTLTVSS VL: DIKMTQSPSSMYASLGERVTITCKASQDINSYLSWFQQKSGKSPKTLIYRANRLVDGVPSRFSGSGSGQDYSLTISSLEYEDMGIYYCLQYVEFPLTFGAGTKLELK",–,–,–,Kd [2]: 2.51 nM; koff [2]: 9.66e-05 s⁻¹; kon [2]: 38500 M⁻¹ s⁻¹
"405B8H3 mouse-human chimeric antibody (antibody, V domains shown, also called mAb103-405B8H3) VH: QVQLQQSGAELVRPGASVTLSCKASGYTFTDYEMHWVKQTPVHGLEWIGATDPETGNSAYNQKFKGKAIMTADKSSSTAYMELRSLTSEDSAVYYCISTGWNDWGQGTSLTVSS VL: DIKMTQSPSSMYASLGERVTITCKASQDINSYLSWFQQKPGKSPKTLIYRADRLLDGVPSRFSGSGSGQDYSLTISSLEYGDMGIYYCLQYDEFPYTFGGGTKLEIK",–,–,–,Kd [2]: 1.96 nM; koff [2]: 0.000158 s⁻¹; kon [2]: 80400 M⁻¹ s⁻¹
"556F6B8 (mouse antibody purified from hybridoma) (antibody, V domains shown, also called mAb123-556F6B8) VH: RVQLKQSGPGLVQPSQSLSITCTVSGFSLIKYGVHWVRQSPGEGLEWLGVIWRGGITDYNAAFMSRLSITKDNSKSQVFFKMNSLQADDTAIYYCAKWDGPLAMDYWGQGTSVTVSS VL: DIVMTQSHKFLSTSVGDRVSITCKASQDVGTTVAWYQQKPGQSPKLLIYWASTRHTGVPDRFTGSGSGTDFTLTISNVQSEDLADYFCQQYSSYPYTFGGGTKLEIK",48.1%,–,–,–
"105F1E10 (mouse antibody purified from hybridoma) (antibody, V domains shown, also called mAb009-105F1E10) VH: EVQLQQSGPELVKPGASVKMSCRASGYTFTDFKMHWMKQSHGKSLEWIGYIAPNNGGTAYNQKFRGKATLTVNESSNTAYMELRSLTSEDSAVYYCVDWDDVDYWGQGTTLTVSS VL: DIKMTQSPSSMYASLGERVTITCKASQDINSYLSWFQQKSGKSPKTLIYRANRLVDGVPSRFSGSGSGQDYSLTISSLEYEDMGIYYCLQYVEFPLTFGAGTKLELK",27.8%,–,–,–
"105F1E10 (LAG-3 mouse-human chimeric antibody) (antibody, V domains shown) VH: EVQLQQSGPELVKPGASVKMSCRASGYTFTDFKMHWMKQSHGKSLEWIGYIAPNNGGTAYNQKFRGKATLTVNESSNTAYMELRSLTSEDSAVYYCVDWDDVDYWGQGTTLTVSS VL: DIKMTQSPSSMYASLGERVTITCKASQDINSYLSWFQQKSGKSPKTLIYRANRLVDGVPSRFSGSGSGQDYSLTISSLEYEDMGIYYCLQYVEFPLTFGAGTKLELK",–,0.2 OD450,3.53 OD450,–
"405B8H3 (LAG-3 mouse-human chimeric antibody) (antibody, V domains shown, also called mouse-human chimeric antibody 405B8H3) VH: QVQLQQSGAELVRPGASVTLSCKASGYTFTDYEMHWVKQTPVHGLEWIGATDPETGNSAYNQKFKGKAIMTADKSSSTAYMELRSLTSEDSAVYYCISTGWNDWGQGTSLTVSS VL: DIKMTQSPSSMYASLGERVTITCKASQDINSYLSWFQQKPGKSPKTLIYRADRLLDGVPSRFSGSGSGQDYSLTISSLEYGDMGIYYCLQYDEFPYTFGGGTKLEIK",–,0.19 OD450,3.54 OD450,–
"409B11E12 (LAG-3 mouse-human chimeric antibody) (antibody, V domains shown) VH: QVQLQQSGAELVRPGASVTLSCKASGYTFTDYEMHWVKQTTVHGLEWIGATDPETSYSAYNQKFKGKAILTADKSSSTAYMELRSLTSEDSAVYYCIATGWNDWGQGTSLTVSS VL: DLKMTQSPSSMYASLGERVTITCKASQDINSYLSWFQQKPGKSPKTLIYRANRLLDGVPSRFSGSGSGQDYSLTISSLEYEDMGIYYCLQYDEFPYTFGGGTKLEIK",–,0.2 OD450,3.64 OD450,–
"409D4E10 (LAG-3 mouse-human chimeric antibody) (antibody, V domains shown) VH: QVQLQQSGAELVRPGASVTLSCKASGNTFTDYEMHWVKQTPVHGLEWIGATDPETDNTAYNQKFKGKAILTTDKSSSTAYMELRSLTSEDSAVYYCITSGWNDWGQGTSLTVSS VL: DIKMTQSPSSMYASLGERVTITCKASQDINSYLSWFQQKPGKSPKTLIYRANRLLDGVPSRFSGSGSGQDYSLTISSLEYEDMGIYYCLQYNEFPYTFGGGTKLEIK",–,0.16 OD450,3.73 OD450,–
"556F6B8 (LAG-3 mouse-human chimeric antibody) (antibody, V domains shown, also called 556F8B8) VH: RVQLKQSGPGLVQPSQSLSITCTVSGFSLIKYGVHWVRQSPGEGLEWLGVIWRGGITDYNAAFMSRLSITKDNSKSQVFFKMNSLQADDTAIYYCAKWDGPLAMDYWGQGTSVTVSS VL: DIVMTQSHKFLSTSVGDRVSITCKASQDVGTTVAWYQQKPGQSPKLLIYWASTRHTGVPDRFTGSGSGTDFTLTISNVQSEDLADYFCQQYSSYPYTFGGGTKLEIK",–,0.17 OD450,3.73 OD450,–
